Target: Rhodopsin (endogenous in mouse retina) (mouse (endogenous in retina), UniProt P15409 1-348)
Assay: far-Western, overlay or dot blot

- binding result: binds
B1: GFP-MYO1C-790-1028 (MYO1C tail domain, also known as the cargo domain) (domain or fragment, mouse, UniProt Q9WTI7-2 790-1028, looked up)
chain: PRNVLDTSWPTPPPALREASELLRELCMKNMVWKYCRSISPEWKQQLQQKAVASEIFKGKKDNYPQSVPRLFISTRLGTEEISPRVLQSLGSEPIQYAVPVVKYDRKGYKPRPRQLLLTPSAVVIVEDAKVKQRIDYANLTGISVSSLSDSLFVLHVQREDNKQKGDVVLQSDHVIETLTKTALSADRVNNININQGSITFAGGPGRDGIIDFTSGSELLITKAKNGHLAVVAPRLNSR

Reference: publication doi:10.1101/2020.06.02.129890 (bioRxiv, 2020)
